Values of other authors as cited in article PMC10578080.

Molecular target: neuronal ternary SNARE complex (Rattus norvegicus) (UniProt P32851)
Sequence of UniProt P32851 (P32851 whole entry, chain 1 of 3): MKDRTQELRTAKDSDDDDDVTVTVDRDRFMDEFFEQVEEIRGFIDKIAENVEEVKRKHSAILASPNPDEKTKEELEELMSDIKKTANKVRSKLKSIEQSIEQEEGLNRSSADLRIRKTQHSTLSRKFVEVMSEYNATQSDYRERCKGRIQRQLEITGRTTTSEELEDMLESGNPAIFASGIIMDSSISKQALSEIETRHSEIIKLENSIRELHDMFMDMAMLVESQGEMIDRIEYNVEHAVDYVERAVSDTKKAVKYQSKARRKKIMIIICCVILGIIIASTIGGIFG
Sequence of UniProt P32851 (B2RAU4 whole entry, chain 2 of 3, further chain): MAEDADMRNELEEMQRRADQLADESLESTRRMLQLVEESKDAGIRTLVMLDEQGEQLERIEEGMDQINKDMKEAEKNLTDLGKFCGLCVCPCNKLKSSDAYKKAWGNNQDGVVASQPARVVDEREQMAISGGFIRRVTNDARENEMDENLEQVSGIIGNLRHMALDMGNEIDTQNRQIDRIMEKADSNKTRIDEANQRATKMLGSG
Sequence of UniProt P32851 (P63044 2-116, chain 3 of 3, further chain): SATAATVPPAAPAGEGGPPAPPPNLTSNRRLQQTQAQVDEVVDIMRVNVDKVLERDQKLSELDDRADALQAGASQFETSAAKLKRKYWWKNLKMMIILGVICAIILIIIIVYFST

Cpx1 central domain (from UniProt P63041)
Kd: 10 nM
